Test system: U937 (CLL1+) cells
Assay: Cytotoxicity assay, sCAR-T cells + anti-CLL1 switches
Type: cell-based
Conditions: with short-dimeric CAR
Excerpt: FIG. 38A illustrates multiple fusion/grafting locations: A=LCNT1 (light chain N terminus version 1), B=HCNT3 (heavy chain N terminus version 3), C=heavy chain C terminus, and D=light chain C terminus). […] Data shown are an average of duplicate samples, and error bars represent SD. Only the NT switches plus the BvCT and By CH1CL1 as references are depicted.
By utilizing the “universal” anti-peptide sCART cell, multiple switches targeting multiple cancer associated antigens can be rapidly developed. An example of this is the generation of peptide engrafted switches against the AML associated antigen CLL1. A series of 6 plasmids were designed into which commercially synthesized gene-blocks encoding scFv sequences were inserted by gibson phase assembly to generate: Light chain wild type, light chain N-terminal, light chain C-terminal, heavy chain wild type, heavy chain N-terminal and heavy chain C-terminal plasmid constructs. […]
Another example (see Example 7) of switch SAR was shown with the anti-CLL1 switch derived from the anti-CLL1 antibody clone. […] Using these switches in combination with the three different CAR constructs (long, short and short dimeric) in cytotoxicity assays with the CLL1^+U937 cell line it was determined that N-terminal bivalent switches with the short-dimeric CAR was the most optimal for immunological synapse for the in vitro killing of U937 cells (FIG. 38D). […]

B1: anti-CLL1 switch A + B: anti-CLL1 Fab switch, N-terminal bivalent (LCNT & HCNT; SEQ ID 102 & 103) (antibody)
heavy: NYHLENEVARLKKLLVGEAAAKEAAAKADIQLQESGPGLVKPSQSLSLTCSVTGYSITSAYYWNWIRQFPGNKLEWMGYISYDGRNNYNPSLKNRISITRDTSKNQFFLKLNSVTTEDTATYYCAKEGDYDVGNYYAMDYWGQGTSVTVSSARTKGPSVFPLAPSSKSTSGGTAALGCLVKDYFPEPVTVSWNSGALTSGVHTFPAVLQSSGLYSLSSVVTVPSSSLGTQTYICNVNHKPSNTKVDKKVEPKSC
light: NYHLENEVARLKKLGGGGSENVLTQSPAIMSASPGEKVTMTCRASSNVISSYVHWYQQRSGASPKLWIYSTSNLASGVPARFSGSGSGTSYSLTISSVEAEDAATYYCQQYSGYPLTFGAGTKLELKRAAAAPSVFIFPPSDEQLKSGTASVVCLLNNFYPREAKVQWKVDNALQSGNSQESVTEQDSKDSTYSLSSTLTLSKADYEKHKVYACEVTHQGLSSPVTKSFNRGEC
modifications: peptide on N-termini; Made in lab - CLL1(1075.7)-HC_NT3 switch antibody polynucleotide; Made in lab - CLL1(1075.7)-LC_NT1 switch antibody polynucleotide
immunological synapse for in vitro killing: most optimal

— US11091546B2, “Optimized PNE-based chimeric receptor T cell switches and uses thereof” (The Scripps Research Institute, priority 2015, dated 2021)
